± gives the uncertainty stated by the source.

Our source for the amyloid nucleation score values is the supplement of paper PMC12042874.

The series in a line: amyloid nucleation score (Sup35N fusion, yeast selection) (log enrichment); library NNK3; higher = more nucleation; inactive = no reads after selection. The essentials: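 Libraries of peptides of 20 random codons fused to Sup35N were expressed in psi-negative yeast and induced 24 hours with 100 μM copper sulfate. Selection was 7 days at 30°C on medium lacking adenine and uracil, and plasmid inserts were Illumina-sequenced before and after selection. Nucleation score is the DiMSum log enrichment of output over input reads, centred on the mode score of non-aggregating sequences, and sequences with under 100 input reads were left out.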
In the case of HVVVFDYLLSVLCIVDRVEG, the amyloid nucleation score entry was “inactive”. With HWGHVHLVIRLPVMPDSDNR the entry was “inactive”; with HWGTMNGSPSFFPITVRCGG, “inactive”.

Turning to HWIHGRR, the amyloid nucleation score result was “inactive”. With HWYGTMLKLFNVLKPMGPKI the entry was “inactive”; with HYINYINLQMVYFDVGQMYC, 2.96 ± 0.062; with HYKKYITPVQRVGCADPSHC, “inactive”. The value for HYLHRG was “inactive”. Consider HYMLGSLSPVWLFFL, for which the amyloid nucleation score entry is “inactive”. With HYNVFGGRLSSSRNMYKGVY, the amyloid nucleation score result was “inactive”.

Substance HYRIESTVLE gave an amyloid nucleation score of -0.772 ± 0.8. The value for HYSAREWLLLCIMVCDVVVW was “inactive”; that for HYTHSNLQAPDPH was “inactive”.

Regarding IAFGVLVDDSDCCIDTYEEE, the amyloid nucleation score entry is “inactive”. The value for IAGCMGNCGLCRAMVICWMN was -0.409 ± 0.7; that for IALGNVRISRYRVLWAYLSS was “inactive”; that for IALTTRVN was “inactive”.

For IANTHFIIM, the amyloid nucleation score was 1.14 ± 0.13. With IATCTRFIDYVYRDVSSGPC the figure was 0.725 ± 0.11.

Turning to IAVERMIGLLPGSYF, the amyloid nucleation score result is “inactive”.

With IAVPRWKDSDTQKVV, the amyloid nucleation score entry is “inactive”. The value for ICELPNIYDVS was “inactive”; that for ICEVNCGLVIWWVRRFEGAS was “inactive”. For the substance ICRHLSIGG, the amyloid nucleation score result is “inactive”. Regarding ICRLRPLSWMWFAAYSCLFN, the amyloid nucleation score result was “inactive”. With ICYPLFFCNAEWRFEEPCVL the figure was 2.57 ± 0.075. Regarding ICYTYNGPRSSVGVVLLGQ, the amyloid nucleation score result was “inactive”. As for IDIESL, the amyloid nucleation score entry was “inactive”. Consider IDISIL, for which the amyloid nucleation score entry was “inactive”.

In the case of IDRVMCNHDSIRQQLSLLSV, the amyloid nucleation score entry was “inactive”. In the case of IDVMEYMLASYRVSWYRGLA, the amyloid nucleation score result is “inactive”. The value for IDVYLGLYMRRVSVLETHCS was 2.02 ± 0.087; that for IDVYRFRKGA was “inactive”; that for IEACSVSM was 0.059 ± 0.98. On to IENQSRCLLTNVATVN, for which the amyloid nucleation score entry was “inactive”. The value for IESSYFNNNRFGRHVVKQVG was “inactive”. With IETGSKYVAVRARLQSVMDG the entry was “inactive”.

IEYWFASRTFWSCRNMVRH had an amyloid nucleation score of -0.342 ± 0.98.

IFCGPCLSSYRPKWTGMTSY had an amyloid nucleation score of 2.12 ± 0.06. As to IFCKPWGSSFRIEPVAGTWI, the amyloid nucleation score result is “inactive”. As to IFFSIVSWKDAGCSEAINCQ, the amyloid nucleation score entry is “inactive”. Substance IFFVTVYQTNHHKSTLRCTN yielded an amyloid nucleation score of 2.33 ± 0.087. With IFGSAFFRYYLCITQFCEYS the entry was “inactive”. The value for IFLAGDMC was “inactive”; that for IFLKHIPRHSSSKTMTANCP was “inactive”; that for IFLRYSLSSRYHRCLLLKES was “inactive”. The value for IFPNLACSFRFCTRPYRSSM was 0.571 ± 0.25; that for IFSNLGVVNLCRACFKYSNI was 2.92 ± 0.059; that for IFVLDASMVMSFYVSVDASS was 0.989 ± 0.093.

Turning to IFYVCRIIWCTERQVGKLGL, the amyloid nucleation score entry was “inactive”. The value for IGEMNTPMPAMKFVMRWLDH was 0.845 ± 0.13. Take IGFNA: the amyloid nucleation score entry was “inactive”. The value for IGIIFSKVWSPPDDMHT was 1.28 ± 0.095. The value for IGLSAKIRFWVMWRMRHTR was “inactive”.
